From patent publication US11541133B2, “Treatment of cancer cells overexpressing somatostatin receptors using ocreotide derivatives chelated to radioisotopes” (RADIOMEDIX INC., priority 2017, dated 2023)

Assays:
AR42J tumors = assay: Combination therapy efficacy study with ADRUCIL in AR42J xenograft athymic nude mice (FIGS. 42-43); format: in vivo; settings: ADRUCIL alone, 15 mg/kg once weekly, nine injections
Procedure: Athymic nude mice are given AR42J tumors and allowed to grow until tumors reach about 300 mm^3. Mice in treatment groups are injected with 100 μl of 15 mg/kg ADRUCIL® once weekly for a total of nine injections. 10 μCi of ^212Pb-DOTAMTATE is given at either 2 week or 3 week intervals for a total of 3 treatments. The ^212Pb-DOTAMTATE is given within 24 hours after an ADRUCIL® treatment. 10 μCi per 4.1 ng peptide is used, and the cumulative injection dose is 30 μCi. The animals are monitored daily, and calipered and weighed 3 times per week. The animals are sacrificed when termination criteria are met.

[1] = mouse, in vivo
Text: Signs of acute toxicity are examined in a non-GLP repeat dose study to compare single administration vs fractionation (described below). This study is designed based on observations made in athymic nude mice. […] This observation is correlated with the GLP findings that hematological toxicity in the surviving animals from the higher dose groups is recoverable within a month. As renal and hepatic toxicity is cumulative a single dose treatment vs multiple doses leading to the same cumulative dose should be similar (Barendsen, 1964). Fractionated administration of radioactivity three weeks apart compared to a single injection had very similar toxicity profile.

in vivo [2] = assay: in vivo; design: species or system mice; settings: CD-1, mouse, iv, 10 uCi, total radioactivity
Procedure: CD-1 mice are injected with 10 μCi of ^212Pb-DOTAMTATE as part of a biodistribution study. Blood is collected at 15 minutes; 1 hour and 4 hours post injection. Body weights determined by taking the average of 10 CD-1 mice at 7 weeks old, the age of the mice in this study and using this weight, blood volume is estimated using the equation by Lee and Blaufox (1985). % ID in blood mice is then calculated for 5 mice per group.

in vivo [3] = assay: in vivo; design: species or system mice
Procedure: Female CD-1 mice (˜20 g) are injected with a single dose of ^212Pb-DOTAMTATE. Specifically, 10 μCi of ^212Pb-DOTAMTATE is diluted in PBS and 100 μl is administered to the mice via intravenous injection. The animals are sacrificed at predetermined time points of 15 minutes, 1 hour, 4 hours and 24 hours and 48 hours post drug injection. Tissues are collected from each animal and evaluated for amount of radioactive material in each organ by auto gamma counter. Specifically, organs are harvested, weighed and transferred to polypropylene tubes. The tubes are placed in a calibrated Wizard2 γ-counter (PerkinElmer, Shelton, Conn.) and counted for three minutes (204-274 keV). A standard consisting of one-twentieth of the injection volume is counted with each time point. The background is automatically subtracted from the counts. The standard is also used for decay correction. % ID/g is calculated for each organ collected.

[4] = Dosimetry and bio-distribution of ^203Pb-DOTAMTATE in patients with somatostatin expressing neuroendocrine tumors (SPECT-CT); format: in vivo, human
Procedure: Total of 6 patients are enrolled in the first-in-human open-label, single-dose, dosimetry and bio-distribution of ^203Pb-DOTAMTATE.
All patients (1 female and 5 male) receive an average dose of 4.94 (4.66-5.26) mCi of ^203Pb-DOTAM-TATE and undergo 1 hour, 4 hour, 24 hour and 48 hour post injection SPECT-CT scans. Ethnicity of all 6 patients is Caucasian.
Pharmacokinetic data from ^203Pb-DOTAMTATE imaging are used to calculate the absorbed dose from ^203Pb-DOTAMTATE imaging. The data is then extrapolated to calculate the expected tissue absorbed doses following the administration of ^212Pb-DOTAMTATE for future Targeted Alpha particle Therapy (TAT).

[5] = Non-GLP dose range finding (single dose acute toxicity) study in athymic nude mice (FIGS. 35-36); format: in vivo
Procedure: Female athymic nude mice (˜20 g) are injected with a single dose of 10 μCi, 20 μCi, 40 μCi or 60 μCi of ^212Pb-DOTAMTATE or control PBS intravenously. Five animals are assigned per treatment group. Animals are weighed three times per week and monitored daily for signs of termination criteria (15% weight loss over 2 days, lack of grooming over 5 days, lethargy/weakness over 3 days, reduced motility, hunched back, diarrhea, hypothermia). The study is concluded after 4 weeks.

[6] = Repeat-dose (fractionated vs single dose) toxicity study in tumor-free CD-1 mice (FIGS. 37-39); format: in vivo
Procedure: Female, tumor free CD-1 mice are injected with one dose of 40 μCi ^212Pb-DOTAMTATE, 2 doses of 20 μCi ^212Pb-DOTAMTATE or three doses of 15 μCi ^212Pb-DOTAMTATE. Animals are given three weeks between doses for these who received multiple treatments. Animals are weighed three times per week and monitored daily for signs of termination criteria (15% weight loss over 2 days or 20% loss from initial weight, lack of grooming over 5 days, lethargy/weakness over 3 days, reduced motility, hunched back, diarrhea, hypothermia). Blood for hematological analysis is collected weekly.

[7] = female, CD-1, mouse, iv, 10 uCi, total radioactivity

Procedure for AR42J cells: Thirty-thousand (3×10^4) AR42J cells are grown in the wells of a 96 well plate for 2 days. Cells are then incubated for 4 hours with increasing doses of ^212Pb-DOTAMTATE ranging from 0 nCi/ml to 800 nCi/ml. Eight wells per group are treated. Cells are washed with PBS to remove drug and then fresh media is introduced. Cells are allowed to incubate for 6 days at 37° C. Cells are then rinsed and incubated with fluorescein diacetate for 30 minutes and read with a fluorimeter at 485/535 nm. Percentage of viable cells is calculated based on untreated cells as a control.

For O=c1[nH]cc(F)c(=O)[nH]1 [ADRUCIL®], the median survival (AR42J tumors) was 2.4 weeks.
For C[C@@H](O)[C@H](NC(=O)[C@@H]1CSSC[C@H](NC(=O)[C@@H](Cc2ccccc2)NC(=O)CN2CCN(CC(N)=O)CCN(CC(N)=O)CCN(CC(N)=O)CC2)C(=O)N[C@@H](Cc2ccc(O)cc2)C(=O)N[C@H](Cc2c[nH]c3ccccc23)C(=O)N[C@@H](CCCCN)C(=O)N[C@@H]([C@@H](C)O)C(=O)N1)C(=O)O [^212Pb-DOTAMTATE, ((4R,7S,10S,13R,16S,19R)-13-((1H-indol-3-yl)methyl)-10-(4-aminobutyl)-16-(4-hydroxybenzyl)-7-((R)-1-hydroxyethyl)-6,9,12,15,18-pentaoxo-19-((R)-3-phenyl-2-(2-(4,7,10-tris(2-amino-2-oxoethyl)-1,4,7,10-tetraazacyclododecan-1-yl)acetamido)propanamido)-1,2-dithia-5,8,11,14,17-pentaazacycloicosane-4-carbonyl)-L-threonine chelated to M, metal not drawn], the “toxicity compared with single 40 μCi dose” value [1] was “same toxicity profile”, the tissue uptake dose at 1 h (in vivo [2]) was 1.8 %ID and the tissue uptake dose at 4 h (in vivo [2]) was 0.1 %ID. For the same compound, the cytotoxic effect (AR42J cells) was “complete cell death”, the tissue uptake at 1 h (in vivo [3]; [7]) was ~30 %ID/g and the tissue uptake at 24 h (in vivo [3]; [7]) was ~10 %ID/g. The “percent-injected dose per gram, all organs with the exception of the kidneys” value (in vivo [3]; mouse) was “less than 10%”, the “cumulative dose corresponding to the maximum theoretical absorbed dose estimate to kidneys of 23 Gy” value ([4]; human, in vivo) was 32.7 mCi and the “dose per therapy cycle corresponding to the maximum theoretical absorbed kidney dose of 23 Gy” value ([4]; patients, dosimetry analysis, 3 cycles) was 10.9 mCi. The “animals surviving until the end of the four-week study” value ([5]; single dose 10 μCi and 20 μCi groups) was 100%, the “time of death of all animals” value ([5]; single dose 60 μCi) was 7 days post injection and the animals that died ([6]; 1×40 μCi, nine days after injection) was ~40%. The animals that died ([6]; 2×20 μCi, within four weeks of the study, one week after the second dose) was 50% and the mortality ([6]; 3×15 μCi, three weeks between doses) was “no mortality”.
